The target of the data set is T1, beta-lactoglobulin (β-LG) (Bos taurus (cow)?, UniProt P02754 17-178).
T1 sequence: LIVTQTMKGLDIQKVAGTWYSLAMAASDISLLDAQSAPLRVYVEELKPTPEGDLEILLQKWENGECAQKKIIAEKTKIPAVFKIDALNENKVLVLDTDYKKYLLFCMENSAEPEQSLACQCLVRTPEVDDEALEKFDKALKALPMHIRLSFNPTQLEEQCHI
The data set is described as follows: electrochemical (chronoamperometric) titration on gold screen-printed electrode, immobilized β-LG, streptavidin-HRP/TMB; 2 mM MgCl2 in BS-LG selection buffer; aptamer 40-100 nM; Kd read as inflection point; Kd assay: BS-LG, 50 mM Tris pH 7.4, 150 mM NaCl, 2 mM MgCl2 (wash and HRP step; aptamer diluent not stated), 30 min incubation, temperature not stated. The following applies: protein: commercial; chain copies: 2; label: 5'-biotin.

Broadly, the Kd is the equilibrium constant for the complex coming apart. High values mean weaker binding, low ones tighter binding.

B1: BLG14 aptamer (ssDNA)
DNA: GACGATCGGACCGCAGTACCCACCCACCAGCCCCAACATCATGCCCATCCGTGTGTG
For B1, the Kd worked out at 56 nM.

The values above are taken from article PMC9568494, “A portable electrochemiluminescence aptasensor for β-lactoglobulin detection”.
